Experimental data published in the supplement of paper PMC9112550, “Optimization of the antimicrobial peptide Bac7 by deep mutational scanning” (BMC Biology, 2022).

System: Escherichia coli TOP10
Test: shrunken log2 fold change of peptide-encoding DNA abundance (4.5 h post-induction vs induction); higher = less antimicrobial activity (less host growth inhibition)
Details: time post-induction: 4.5 h; library: site-saturation at positions 5, 18, 19, 20
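Further: peptides expressed intracellularly from a pBAD plasmid library in pooled LB shake-flask culture, induced with 0.3% L-arabinose, DNA abundance read by NGS, three biological replicates, DESeq2 with apeglm shrinkage.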

| Sequence | shrunken log2 fold change |
| --- | --- |
| RRIRMRPPRLPRPRPRPIESPRP | 0.000778 |
| RRIRHRPPRLPRPRPRPGEIPRP | 0.761 |
| RRIRWRPPRLPRPRPRPIFSPRP | 0.0085 |
| RRIRERPPRLPRPRPRPKHQPRP | -0.0699 |
| RRIRGRPPRLPRPRPRPWITPRP | -0.204 |
| RRIRMRPPRLPRPRPRPTRPPRP | 1.32 |
| RRIRFRPPRLPRPRPRPIGQPRP | 0.00854 |
| RRIRCRPPRLPRPRPRPCGWPRP | 0.456 |
| RRIRMRPPRLPRPRPRPCAFPRP | 0.121 |
| RRIRNRPPRLPRPRPRPEDFPRP | 0.0401 |
| RRIRERPPRLPRPRPRPGIPPRP | -0.421 |
| RRIRWRPPRLPRPRPRPEKDPRP | -0.0712 |
| RRIRFRPPRLPRPRPRPNEQPRP | 0.027 |
| RRIRSRPPRLPRPRPRPSPTPRP | -0.0425 |
| RRIRWRPPRLPRPRPRPYSDPRP | -0.381 |
| RRIRSRPPRLPRPRPRPAGRPRP | 0.287 |
| RRIRRRPPRLPRPRPRPSETPRP | 0.493 |
| RRIRYRPPRLPRPRPRPCSWPRP | -0.272 |
| RRIRDRPPRLPRPRPRPWMNPRP | -0.15 |
| RRIRLRPPRLPRPRPRPAHIPRP | 0.0196 |
| RRIRGRPPRLPRPRPRPSNQPRP | 0.0776 |
| RRIRHRPPRLPRPRPRPPSVPRP | 0.241 |

| Sequence | shrunken log2 fold change |
| --- | --- |
| RRIRQRPPRLPRPRPRPMIRPRP | -0.0156 |
| RRIRQRPPRLPRPRPRPDSWPRP | 0.0403 |
| RRIRKRPPRLPRPRPRPVQNPRP | 0.49 |
| RRIRTRPPRLPRPRPRPIKQPRP | -0.0342 |
| RRIRMRPPRLPRPRPRPYWHPRP | -0.305 |
| RRIRPRPPRLPRPRPRPPLQPRP | 0.327 |
| RRIRARPPRLPRPRPRPVPIPRP | 0.0735 |
| RRIRQRPPRLPRPRPRPRFAPRP | 0.141 |
| RRIRLRPPRLPRPRPRPAYWPRP | 0.154 |
| RRIRCRPPRLPRPRPRPMCNPRP | -0.378 |
| RRIRVRPPRLPRPRPRPKAPPRP | 0.592 |
| RRIRRRPPRLPRPRPRPMHEPRP | 0.213 |
| RRIRFRPPRLPRPRPRPLVAPRP | -0.00793 |
| RRIRWRPPRLPRPRPRPDKSPRP | -0.135 |
| RRIRMRPPRLPRPRPRPQQYPRP | -0.017 |
| RRIRTRPPRLPRPRPRPERCPRP | 0.0057 |
| RRIRNRPPRLPRPRPRPYGSPRP | -0.0603 |
| RRIRDRPPRLPRPRPRPHCMPRP | -0.24 |
| RRIRNRPPRLPRPRPRPNYVPRP | -0.0488 |
| RRIRTRPPRLPRPRPRPVLFPRP | -0.193 |
| RRIRRRPPRLPRPRPRPELGPRP | 0.809 |
| RRIRHRPPRLPRPRPRPDCYPRP | -0.0716 |

| Sequence | shrunken log2 fold change |
| --- | --- |
| RRIRLRPPRLPRPRPRPLWAPRP | 0.129 |
| RRIRVRPPRLPRPRPRPKDAPRP | 0.0211 |
| RRIRCRPPRLPRPRPRPYNAPRP | -1.23 |
| RRIRKRPPRLPRPRPRPEQVPRP | 0.158 |
| RRIRWRPPRLPRPRPRPGAYPRP | 0.109 |
| RRIRQRPPRLPRPRPRPQQWPRP | 0.201 |
| RRIRDRPPRLPRPRPRPPLKPRP | 0.0742 |
| RRIRPRPPRLPRPRPRPCKVPRP | -0.348 |
| RRIRYRPPRLPRPRPRPDTIPRP | -0.145 |
| RRIRHRPPRLPRPRPRPFMHPRP | -0.377 |
| RRIRCRPPRLPRPRPRPEKCPRP | 0.209 |
| RRIRERPPRLPRPRPRPGTNPRP | -0.361 |
| RRIRFRPPRLPRPRPRPIVLPRP | -0.196 |
| RRIRWRPPRLPRPRPRPPFMPRP | 0.0466 |
| RRIRYRPPRLPRPRPRPPKSPRP | -0.0324 |
| RRIRWRPPRLPRPRPRPLWMPRP | 0.151 |
| RRIRDRPPRLPRPRPRPYSNPRP | -0.045 |
| RRIRCRPPRLPRPRPRPITAPRP | -3.59e-05 |
| RRIRFRPPRLPRPRPRPDCSPRP | 0.0229 |
| RRIRWRPPRLPRPRPRPMHDPRP | 0.229 |
| RRIRVRPPRLPRPRPRPRGVPRP | 0.278 |
| RRIRLRPPRLPRPRPRPVHRPRP | 0.119 |

| Sequence | shrunken log2 fold change |
| --- | --- |
| RRIRARPPRLPRPRPRPCTSPRP | 0.0117 |
| RRIRTRPPRLPRPRPRPWHRPRP | -0.126 |
| RRIRKRPPRLPRPRPRPRWWPRP | 0.316 |
| RRIRERPPRLPRPRPRPAKMPRP | -0.194 |
| RRIRDRPPRLPRPRPRPMGPPRP | -0.00107 |
| RRIRHRPPRLPRPRPRPITSPRP | -0.401 |
| RRIRPRPPRLPRPRPRPVWCPRP | 0.0172 |
| RRIRVRPPRLPRPRPRPPFLPRP | 1.11 |
| RRIRFRPPRLPRPRPRPRHMPRP | -0.124 |
| RRIRYRPPRLPRPRPRPFYSPRP | -1.23 |
| RRIRLRPPRLPRPRPRPARKPRP | 0.0589 |
| RRIRCRPPRLPRPRPRPKVPPRP | -0.0562 |
| RRIRHRPPRLPRPRPRPVKTPRP | -0.164 |
| RRIRERPPRLPRPRPRPKSWPRP | 0.715 |
| RRIRYRPPRLPRPRPRPRRLPRP | -0.385 |
| RRIRMRPPRLPRPRPRPFEEPRP | 0.0197 |
| RRIRFRPPRLPRPRPRPVCNPRP | -0.0727 |
| RRIRWRPPRLPRPRPRPCGEPRP | 0.216 |
| RRIRARPPRLPRPRPRPQGLPRP | 0.208 |
| RRIRHRPPRLPRPRPRPHTKPRP | -0.0831 |
| RRIRPRPPRLPRPRPRPPAYPRP | -0.0312 |
| RRIRLRPPRLPRPRPRPMLNPRP | -0.423 |

| Sequence | shrunken log2 fold change |
| --- | --- |
| RRIRERPPRLPRPRPRPIKMPRP | -0.347 |
| RRIRDRPPRLPRPRPRPPWTPRP | 0.238 |
| RRIRVRPPRLPRPRPRPGKEPRP | -0.0126 |
| RRIRFRPPRLPRPRPRPFNLPRP | -0.66 |
| RRIRMRPPRLPRPRPRPLEEPRP | 3.36 |
| RRIRTRPPRLPRPRPRPNKMPRP | 0.0425 |
| RRIRNRPPRLPRPRPRPEVCPRP | -0.049 |
| RRIRNRPPRLPRPRPRPWPPPRP | 0.692 |
| RRIRERPPRLPRPRPRPNPFPRP | 0.0226 |
| RRIRFRPPRLPRPRPRPRNHPRP | -0.132 |
| RRIRMRPPRLPRPRPRPNWCPRP | 0.0361 |
| RRIRVRPPRLPRPRPRPTMKPRP | -0.461 |
| RRIRARPPRLPRPRPRPQGIPRP | 0.0477 |
| RRIRERPPRLPRPRPRPIFMPRP | -0.1 |
| RRIRARPPRLPRPRPRPYFYPRP | -0.619 |
| RRIRYRPPRLPRPRPRPHITPRP | -0.538 |
| RRIRARPPRLPRPRPRPYAAPRP | 0.375 |
| RRIRPRPPRLPRPRPRPWQAPRP | -0.0268 |
| RRIRDRPPRLPRPRPRPWRLPRP | -0.264 |
| RRIRGRPPRLPRPRPRPHETPRP | -0.022 |
